Assay results from patent US20120316071A1 (published 2012).
Positions count from the first letter of the chain named. Names and notes keep the numbering of the source.

B1: Fab VH5-51_IGHD5-18*01>3_IGHJ4*01 G100K/G104T G24T/S28R/G35V (H:KT TRV) & V3-4_IGLJ1*01 (Fab, V domains shown)
VH: EVQLVQSGAEVKKPGESLKISCKTSGYRFTSYWIVWVRQMPGKGLEWMGIIYPGDSDTRYSPSFQGQVTISADKSISTAYLQWSSLKASDTAMYYCARRKYSYTYDYFDYWGQGTLVTVSS
VL: QTVVTQEPSFSVSPGGTVTLTCGLSSGSVSTSYYPSWYQQTPGQAPRTLIYSTNTRSSGVPDRFSGSILGNKAALTITGAQADDESDYYCVLYMGSGISYVFGTGTKVTVL
notes: Fab with the parent (unmutated) light chain; expressed from plasmid A (CH1, His6 and Flag tags) and plasmid E (lambda CL); also called H:KT TRV & L:wt
B2: Fab VH5-51_IGHD5-18*01>3_IGHJ4*01 G100K/G104T G24T/S28R/G35V (H:KT TRV) & V3-4_IGLJ1*01 S57A (Fab, V domains shown)
VH: B1 VH
VL: B1 VL with S57A
notes: Fab; expressed from plasmid A (CH1, His6 and Flag tags) and plasmid E (lambda CL)
B3: Fab VH5-51_IGHD5-18*01>3_IGHJ4*01 G100K/G104T G24T/S28R/G35V (H:KT TRV) & V3-4_IGLJ1*01 M94D (Fab, V domains shown)
VH: B1 VH
VL: B1 VL with M94D
notes: as for B2
B4: Fab VH5-51_IGHD5-18*01>3_IGHJ4*01 G100K/G104T G24T/S28R/G35V (H:KT TRV) & V3-4_IGLJ1*01 M94R (Fab, V domains shown)
VH: B1 VH
VL: B1 VL with M94R
notes: as for B2
B5: Fab VH5-51_IGHD5-18*01>3_IGHJ4*01 G100K/G104T G24T/S28R/G35V (H:KT TRV) & V3-4_IGLJ1*01 M94T (Fab, V domains shown)
VH: B1 VH
VL: B1 VL with M94T
notes: as for B2
B6: Fab VH5-51_IGHD5-18*01>3_IGHJ4*01 G100K/G104T G24T/S28R/G35V (H:KT TRV) & V3-4_IGLJ1*01 M94G (Fab, V domains shown)
VH: B1 VH
VL: B1 VL with M94G
notes: as for B2
B7: Fab VH5-51_IGHD5-18*01>3_IGHJ4*01 G100K/G104T G24T/S28R/G35V (H:KT TRV) & V3-4_IGLJ1*01 M94F (Fab, V domains shown)
VH: B1 VH
VL: B1 VL with M94F
notes: as for B2
B8: Fab VH5-51_IGHD5-18*01>3_IGHJ4*01 G100K/G104T G24T/S28R/G35V (H:KT TRV) & V3-4_IGLJ1*01 S58A (Fab, V domains shown)
VH: B1 VH
VL: B1 VL with S58A
notes: as for B2
B9: Fab VH5-51_IGHD5-18*01>3_IGHJ4*01 G100K/G104T G24T/S28R/G35V (H:KT TRV) & V3-4_IGLJ1*01 M94V (Fab, V domains shown)
VH: B1 VH
VL: B1 VL with M94V
notes: as for B2
B10: Fab VH5-51_IGHD5-18*01>3_IGHJ4*01 G100K/G104T G24T/S28R/G35V (H:KT TRV) & V3-4_IGLJ1*01 M94S (Fab, V domains shown)
VH: B1 VH
VL: B1 VL with M94S
notes: as for B2
B11: Fab VH5-51_IGHD5-18*01>3_IGHJ4*01 G100K/G104T G24T/S28R/G35V (H:KT TRV) & V3-4_IGLJ1*01 R56A (Fab, V domains shown)
VH: B1 VH
VL: B1 VL with R56A
notes: as for B2
B12: Fab VH5-51_IGHD5-18*01>3_IGHJ4*01 G100K/G104T G24T/S28R/G35V (H:KT TRV) & V3-4_IGLJ1*01 M94P (Fab, V domains shown)
VH: B1 VH
VL: B1 VL with M94P
notes: as for B2
B13: Fab VH5-51_IGHD5-18*01>3_IGHJ4*01 G100K/G104T G24T/S28R/G35V (H:KT TRV) & V3-4_IGLJ1*01 M94E (Fab, V domains shown)
VH: B1 VH
VL: B1 VL with M94E
notes: as for B2
B14: Fab VH5-51_IGHD5-18*01>3_IGHJ4*01 G100K/G104T G24T/S28R/G35V (H:KT TRV) & V3-4_IGLJ1*01 M94N (Fab, V domains shown)
VH: B1 VH
VL: B1 VL with M94N
notes: as for B2
B15: Fab VH5-51_IGHD5-18*01>3_IGHJ4*01 G100K/G104T G24T/S28R/G35V (H:KT TRV) & V3-4_IGLJ1*01 M94A (Fab, V domains shown)
VH: B1 VH
VL: B1 VL with M94A
notes: as for B2
B16: Fab VH5-51_IGHD5-18*01>3_IGHJ4*01 G100K/G104T G24T/S28R/G35V (H:KT TRV) & V3-4_IGLJ1*01 N54A (Fab, V domains shown)
VH: B1 VH
VL: B1 VL with N54A
notes: as for B2
B17: Fab VH5-51_IGHD5-18*01>3_IGHJ4*01 G100K/G104T G24T/S28R/G35V (H:KT TRV) & V3-4_IGLJ1*01 M94L (Fab, V domains shown)
VH: B1 VH
VL: B1 VL with M94L
notes: as for B2
B18: Fab VH1-46_IGHD6-6*01_IGHJ1*01 S102A/S103P/S104F/H111F (APFF) & L6_IGKJ1*01 (Fab, V domains shown)
VH: QVQLVQSGAEVKKPGASVKVSCKASGYTFTSYYMHWVRQAPGQGLEWMGIINPSGGSTSYAQKFQGRVTMTRDTSTSTVYMELSSLRSEDTAVYYCAREEYAPFSAEYFQFWGQGTLVTVSS
VL: not shown
notes: Fab made in E. coli; The constant parts (CH1 with His6 and Flag tags from plasmid A, kappa CL from plasmid C) are not added here; also called H:APFF & L:wt; APFF & parent
B19: Fab VH1-46_IGHD6-6*01_IGHJ1*01 S102A/S103P/S104F/H111F (APFF) & L6_IGKJ1*01 S30A (Fab, V domains shown)
VH: B18 VH
VL: EIVLTQSPATLSLSPGERATLSCRASQSVASYLAWYQQKPGQAPRLLIYDASNRATGIPARFSGSGSGTDFTLTISSLEPEDFAVYYCQQRSNWPPWTFGQGTKVEIKR
notes: Fab made in E. coli; The constant parts (CH1 with His6 and Flag tags from plasmid A, kappa CL from plasmid C) are not added here; also called APFF & S30A
B20: Fab VH1-46_IGHD6-6*01_IGHJ1*01 S102A/S103P/S104F/H111F (APFF) & L6_IGKJ1*01 S31T (Fab, V domains shown)
VH: B18 VH
VL: B19 VL with A30S, S31T
notes: Fab made in E. coli; The constant parts (CH1 with His6 and Flag tags from plasmid A, kappa CL from plasmid C) are not added here; also called APFF & S31T
B21: Fab VH1-46_IGHD6-6*01_IGHJ1*01 S102A/S103P/S104F/H111F (APFF) & L6_IGKJ1*01 S30R (Fab, V domains shown)
VH: B18 VH
VL: B19 VL with A30R
notes: Fab made in E. coli; The constant parts (CH1 with His6 and Flag tags from plasmid A, kappa CL from plasmid C) are not added here; also called APFF & S30R

Target: T1, Recombinant Human DLL4 (human, UniProt Q9NR61 27-524)
T1 construct: Bought recombinant human DLL4 (R&D Systems Cat#1506-D4/CF); also called delta-like protein 4; Delta-like 4
Experiment: ELISA, DLL4 coated on the plate, Fab at 100 nM, signal minus blank

Row | ELISA Signal-blank (100 nM Fab) | Binder
1 | 0.393 | B1
2 | 0.598 | B2
3 | 0.07 | B3
4 | 0.197 | B4
5 | 0.395 | B5
6 | 0.199 | B6
7 | 0.317 | B7
8 | 0.451 | B8
9 | 0.315 | B9
10 | 0.195 | B10
11 | 0.442 | B11
12 | 0.256 | B12
13 | 0.171 | B13
14 | 0.205 | B14
15 | 0.216 | B15
16 | 0.318 | B16
17 | 0.388 | B17

Target: T2, Recombinant Human DLL4 (delta-like protein 4) (human, UniProt Q9NR61 27-524)
T2 construct: Bought recombinant human DLL4 (R&D Systems Cat#1506-D4/CF); also called rHuman DLL4
Experiment: ECL (MSD) multispot binding assay, antigen spotted on plate, Fab in solution;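 also: purified Fab incubated 1 h at 20 °C, detected via TAG-labelled antibody electrochemiluminescence, antigen spot compared with the blank in the same well, ratio at least 4 counted as hit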

Row | Signal/Blank | ECL signal | Binder
18 | 389 | – | B18
19 | 1010 | 187000 | B19
20 | 576 | 191000 | B20
21 | 682 | 189000 | B21
